In the Immune Epitope Database (IEDB) one finds Kd and IC50 data, which are given here for 13 sequences.

Where only a bound is given, the exact number is not on record here.

Assay [1] has as its target HLA-A*02:01. The assay is described as follows: IEDB peptide-MHC binding, purified MHC/competitive/fluorescence; filed as Kd, often an IC50 or EC50 that approximates it; ≥ and ≤ were set here for values at or beyond the usual limits of such assays. The following applies: source organism: Human immunodeficiency virus 1.
The next assay deals with HLA-A*02:03. Described as above.
The target of the next assay is HLA-A*02:06. The assay is described as above.
For assay [2], the target named is HLA-A*02:11. Described as above.
Assay [3] has as its target HLA-A*02:12. The assay is described as above.
A further assay has as its target HLA-A*02:16. The description is as above. The settings on record: source organism: Human immunodeficiency virus 1.
A further assay deals with HLA-A*02:19. The description is as above. The following applies: source organism: Human immunodeficiency virus 1.
The target in assay [4] is HLA-A*69:01. The assay is described as above. The settings on record: source organism: Human immunodeficiency virus 1.
Assay [5] addresses HLA-A*01:01. As to the kind of experiment: IEDB peptide-MHC binding, purified MHC/direct/fluorescence; filed as Kd, often an IC50 or EC50 that approximates it; ≥ and ≤ were set here for values at or beyond the usual limits of such assays. The following applies: source organism: Camelpox virus M-96.
In assay [6] the target is HLA-A*02:01. Described as above.
The target in assay [7] is HLA-A*11:01. Described as above. The settings on record: source organism: Variola virus.
The target of another assay is HLA-A*26:01. Described as above. The following applies: source organism: Camelpox virus M-96.
A further assay concerns the target HLA-A*31:01. Described as above. The following applies: source organism: Camelpox virus M-96.
Assay [8] addresses HLA-A*69:01. Described as above.
The target in a further assay is HLA-B*08:02. Described as above. The following applies: source organism: Variola virus.
Assay [9] has as its target HLA-B*27:05. The assay is described as above. The following applies: source organism: Camelpox virus M-96.
Another assay has as its target HLA-B*40:01. The assay is described as above. The settings on record: source organism: Camelpox virus M-96.
A further assay has as its target HLA-B*48:01. Described as above. The following applies: source organism: Camelpox virus M-96.
A further assay addresses HLA-B*58:01. The assay is described as above.
The target in assay [10] is HLA-A*03:01. The assay is described as follows: IEDB peptide-MHC binding, purified MHC/competitive/fluorescence; filed as Kd, often an IC50 or EC50 that approximates it; ≥ and ≤ were set here for values at or beyond the usual limits of such assays. The settings on record: source organism: Vaccinia virus WR.
The target of the next assay is HLA-A*30:01. The assay is described as above.
Assay [11] addresses HLA-B*15:01. The assay is described as above.
A further assay addresses HLA-B*15:17. The assay is described as above.
Another assay deals with HLA-B*35:01. Described as above. The settings on record: source organism: Vaccinia virus WR.
The target of a further assay is HLA-B*57:01. The description is as above. The settings on record: source organism: Vaccinia virus WR.
For another assay, the target named is HLA-A*32:01. The assay is described as follows: IEDB peptide-MHC binding, purified MHC/competitive/radioactivity; filed as Kd, often an IC50 or EC50 that approximates it; ≥ and ≤ were set here for values at or beyond the usual limits of such assays. The following applies: source organism: Vaccinia virus WR.
Assay [12] concerns the target HLA-A*03:01. The assay is described as follows: IEDB peptide-MHC binding, purified MHC/competitive/fluorescence; ≥ and ≤ were set here for values at or beyond the usual limits of such assays. The following applies: source organism: Vaccinia virus Copenhagen.
Assay [13] deals with HLA-A*11:01. The assay is described as above. The settings on record: source organism: Vaccinia virus Copenhagen.
Another assay deals with HLA-A*24:02. Described as above.
Another assay has as its target HLA-B*08:01. The assay is described as above.
The target of assay [14] is HLA-B*15:01. The assay is described as above. The settings on record: source organism: Vaccinia virus.
The target of assay [15] is HLA-B*15:01. As to the kind of experiment: IEDB peptide-MHC binding, purified MHC/direct/fluorescence; filed as Kd, often an IC50 or EC50 that approximates it; ≥ and ≤ were set here for values at or beyond the usual limits of such assays. The settings on record: source organism: Haemophilus influenzae.
Assay [16] concerns the target HLA-B*27:05. As to the kind of experiment: IEDB peptide-MHC binding, purified MHC/competitive/fluorescence; filed as Kd, often an IC50 or EC50 that approximates it; ≥ and ≤ were set here for values at or beyond the usual limits of such assays.
Assay [17] addresses HLA-A*01:01. The assay is described as above. The settings on record: source organism: Human immunodeficiency virus 1.
Assay [18] addresses HLA-A*11:01. The description is as above. The following applies: source organism: Human immunodeficiency virus 1.
In the next assay the target is HLA-A*26:02. The assay is described as above. The following applies: source organism: Human immunodeficiency virus 1.
For a further assay, the target named is HLA-B*18:01. Described as above. The following applies: source organism: Human immunodeficiency virus 1.
Assay [19] has as its target HLA-A*02:11. The assay is described as follows: IEDB peptide-MHC binding, purified MHC/direct/fluorescence; filed as Kd, often an IC50 or EC50 that approximates it; ≥ and ≤ were set here for values at or beyond the usual limits of such assays. The following applies: source organism: Orthohantavirus hantanense.
Assay [20] deals with HLA-A*02:12. Described as above. The settings on record: source organism: Orthohantavirus hantanense.
The mark [21] stands for this setting: source organism: Human immunodeficiency virus 1.
Setting [22] is: source organism: Camelpox virus M-96.
Where [23] appears, read: source organism: Vaccinia virus WR.
[24] abbreviates: source organism: Vaccinia virus Copenhagen.
The mark [25] stands for this setting: source organism: Vaccinia virus.
The mark [26] stands for this setting: source organism: Haemophilus influenzae.
The mark [27] stands for this setting: source organism: Haemophilus influenzae 3655.

One may read the Kd as the constant that tells how readily two partners part at equilibrium. Consider GLGQHIYET, for which the Kd with HLA-A*02:01 [1] was 3680 nM; with HLA-A*02:03 (setting [21]) it was 41 nM; with HLA-A*02:06 (setting [21]), 119 nM; in the assay with HLA-A*02:11 [2] (setting [21]) it was 9.55 nM; with HLA-A*02:12 [3] (setting [21]) it was 75.5 nM; with HLA-A*02:16, 2.03 nM. The Kd with HLA-A*02:19 is 771 nM; with HLA-A*69:01 [4], no less than 20000 nM.

For the sequence ITMVNSLTY, the Kd with HLA-A*01:01 [5] was 37.1 nM; with HLA-A*02:01 [6] (setting [22]), no less than 20000 nM; with HLA-A*11:01 [7], 12 nM; with HLA-A*26:01 it was 258 nM; with HLA-A*31:01 it was no less than 20000 nM; with HLA-A*69:01 [8] (setting [22]), no less than 20000 nM. In addition, the Kd was no less than 20000 nM with HLA-B*08:02; no less than 20000 nM with HLA-B*27:05 [9]; no less than 20000 nM in the assay with HLA-B*40:01; no less than 20000 nM in the assay with HLA-B*48:01; 13 nM with HLA-B*58:01 (source organism: Variola virus); 39 nM with HLA-A*03:01 [10]. Besides, the Kd with HLA-A*30:01 (setting [23]) is no less than 20000 nM; in the assay with HLA-B*15:01 [11] (setting [23]), 228 nM; in the assay with HLA-B*15:17 (setting [23]) it was 4.1 nM; with HLA-B*35:01, 290 nM; in the assay with HLA-B*57:01 it was 257 nM; with HLA-A*32:01, 95.7 nM.

What is called IC50 is the midpoint of a concentration-inhibition curve. Consider ITFALKKLI, for which the IC50 is 60800 nM with HLA-A*03:01 [12], 57700 nM with HLA-A*11:01 [13], 2300 nM in the assay with HLA-A*24:02 (setting [24]) and no less than 210000 nM in the assay with HLA-B*08:01 (setting [24]).

For YSKDSRNKL, the results for the concentration for half-maximal inhibition (IC50) with HLA-A*24:02 (setting [25]), with HLA-B*08:01 (setting [25]) and with HLA-B*15:01 [14] were 19700 nM, no less than 77100 nM and no less than 255000 nM, respectively.

For LMTAISQGI, the Kd was 29.5 nM with HLA-A*02:01 [6] (setting [26]); 1720 nM in the assay with HLA-A*69:01 [8] (setting [26]); 2000 nM with HLA-B*15:01 [15]; 367 nM in the assay with HLA-B*58:01 (setting [26]); no more than 0.1 nM with HLA-A*02:03 (setting [27]); no more than 0.1 nM with HLA-A*02:06 (setting [27]). Besides, the Kd is no more than 0.1 nM with HLA-A*02:11 [2] (setting [27]) and 1.15 nM with HLA-A*02:12 [3] (setting [27]).

In the assay with HLA-B*08:01 (setting [23]), TRVLKPSVI displayed an IC50 of no less than 187000 nM.

Sequence DIKASNIVL yielded an IC50 with HLA-B*08:01 (setting [23]) of no less than 266000 nM.

Sequence KRYLQAKSE yielded a Kd with HLA-B*27:05 [16] (source organism: Escherichia coli 536) of 114 nM.

For YRIWLEQNK, in the assay with HLA-B*27:05 [16] (source organism: Mycobacterium tuberculosis C), the Kd was 82.5 nM.

NRYGLPEKM had a Kd in the assay with HLA-B*27:05 [16] (source organism: Bacillus anthracis str. A0488) of 17.5 nM.

GRAGVVPRY gave a Kd with HLA-B*27:05 [16] (source organism: Mycobacterium tuberculosis variant bovis BCG str. Pasteur 1173P2) of 230 nM.

With RSLFNTIAVLY, the Kd in the assay with HLA-A*01:01 [17] is no less than 20000 nM; with HLA-A*02:03 (setting [21]), 356 nM; with HLA-A*02:06 (setting [21]) it was 676 nM; with HLA-A*11:01 [18] it was no less than 20000 nM; in the assay with HLA-A*26:02, 1350 nM; with HLA-A*30:01 (setting [21]), no less than 20000 nM. In addition, the results for the Kd in the assay with HLA-B*15:01 [11] (setting [21]), in the assay with HLA-B*15:17 (setting [21]) and in the assay with HLA-B*18:01 were 3660 nM, 92.3 nM and 1490 nM, respectively.

For WLIEPCKLL, the dissociation constant (Kd) was found to be 24.3 nM with HLA-A*02:01 [6] (source organism: Orthohantavirus hantanense), 5 nM with HLA-A*02:11 [19] and 139 nM with HLA-A*02:12 [20].
